The source of these data is patent US20210309981, “VARIANT TYPE V CRISPR/CAS EFFECTOR POLYPEPTIDES AND METHODS OF USE THEREOF” (The Regents of the University of California, published 2021).

For the data set, the target named is T1, dCasX (D672A-E769A-D935A) (Deltaproteobacteria, D672A,E769A,D935A).
T1 chain: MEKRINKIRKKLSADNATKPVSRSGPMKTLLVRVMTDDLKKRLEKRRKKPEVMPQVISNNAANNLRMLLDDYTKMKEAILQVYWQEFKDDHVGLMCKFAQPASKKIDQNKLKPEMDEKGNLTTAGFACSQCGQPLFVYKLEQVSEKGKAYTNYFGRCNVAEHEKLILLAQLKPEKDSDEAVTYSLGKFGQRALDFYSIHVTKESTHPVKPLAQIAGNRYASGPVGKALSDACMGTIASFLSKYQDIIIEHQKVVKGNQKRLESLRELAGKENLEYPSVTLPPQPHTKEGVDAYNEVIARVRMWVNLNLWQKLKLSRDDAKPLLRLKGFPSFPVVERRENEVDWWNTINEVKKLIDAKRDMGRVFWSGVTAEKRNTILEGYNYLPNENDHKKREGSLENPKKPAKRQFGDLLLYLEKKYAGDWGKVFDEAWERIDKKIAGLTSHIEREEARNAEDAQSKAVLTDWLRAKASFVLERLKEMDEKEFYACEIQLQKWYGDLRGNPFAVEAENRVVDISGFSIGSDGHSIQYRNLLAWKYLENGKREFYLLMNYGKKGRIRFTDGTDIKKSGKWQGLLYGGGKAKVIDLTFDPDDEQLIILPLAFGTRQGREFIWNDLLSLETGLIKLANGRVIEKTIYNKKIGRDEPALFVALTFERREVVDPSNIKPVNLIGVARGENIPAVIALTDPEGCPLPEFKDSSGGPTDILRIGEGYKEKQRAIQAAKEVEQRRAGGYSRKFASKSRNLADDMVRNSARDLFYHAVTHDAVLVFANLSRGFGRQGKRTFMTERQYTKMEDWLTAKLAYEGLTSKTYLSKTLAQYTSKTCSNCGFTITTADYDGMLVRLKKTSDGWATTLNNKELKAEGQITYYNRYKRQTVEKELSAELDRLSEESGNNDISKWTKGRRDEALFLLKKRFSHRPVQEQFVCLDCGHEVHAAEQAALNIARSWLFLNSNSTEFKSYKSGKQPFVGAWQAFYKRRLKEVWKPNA
Description: structure; binary CasX-gRNA complex by SEC and cryo-EM; wild-type vs triple mutant not explicitly stated. The following applies: tags: 2CT-10 vector; tag removed by TEV. (In general: SEC sorts molecules by how far they enter the pores of the column.)

B1: CasX sgRNA (in vitro transcribed; listed sequence is the DNA transcription template) (ssRNA)
RNA: GGCGCGUUUAUUCCAUUACUUUGGAGCCAGUCCCAGCGACUAUGUCGUAUGGACGAAGCGCUUAUUUAUCGGAGAGAAACCGAUAAGUAAAACGCAUCAAAGUCCUGCAGCAGAAAAUCAAA
As for B1, the binding result was “binds”.
